Key:
[1] = Reducing end assay, specific chitinase activity of expression and purification fractions; type: biochemical; conditions: chitin powder, 16 h at 30° C.
Experimental: Integrity and correctness of the constructs was confirmed by colony PCR and Sanger-sequencing. All constructs were transformed into E. coli BL21 and expressed recombinantly. Expression levels of the target enzymes were determined densitometrically after immunoblot detection for cytosolic and secreted expression. Enzymatic activity was determined for all samples using a reducing end assay. […] Furthermore, it was confirmed that these enzymes are efficiently released into the culture supernatant, rendering cell lysis unnecessary for future production cycles.
A two-step purification of the selected recombinant enzymes with PelB signal peptide form the culture supernatant was carried out with an initial ammonium sulfate precipitation step and a sequential IMAC purification of the solubilized protein precipitate. Elution fractions were pooled and an SDS-PAGE and immunoblot was prepared loading the same volume for each sample (FIG. 4). Expression levels of the five chitinases varied largely, and C1 was detected in much greater abundance relative to the others. […] The observed molecular weight of all enzymes in SDS-PAGE gel and immunoblot was not in accordance with the expected theoretical molecular weight taking into account that a 6×His tag was added C-terminally to the enzymes and in general, bands for all enzymes were detected at a higher molecular weight. For all samples, unspecific bands could detected at ˜25 kDa and ˜50 kDa after IMAC purification, most likely representing host cell protein-contaminations. The amount of protein in the culture media, ammonium sulfate concentrates and the final dialyzed elution fractions was determined using the BCA assay and the same fractions were incubated with chitin powder for 16 h at 30° C. followed by the quantification of reducing sugars to measure specific chitinase activity (Table 4.2). Thereby it was confirmed that all target enzymes were successfully enriched during purification according to the specific activity.
For the determination of enzymatic activity of recombinant chitinases, a reducing end assay was carried out [Svein et al., Carbohydr Polym, 2004. 56(1): p. 35-39.]. Fractions containing chitinases were incubated with 5% (w/v) chitin powder extracted from shrimp shells (˜400.000 g/mol; Carl Roth) in MAT buffer for 2 h in an overhead shaker at ambient temperature (standard conditions). Samples were centrifuged at 13000×g for 2 min and 40 μl of the supernatant was mixed with 40 μl 0.5 M NaOH and 40 μL of a reagent containing 1.5 mg/ml 3-Methyl-2-benzothiazolinonhydrazon and 0.75 mg/ml Dithiothreitol. Samples were incubated at 80° C. for 15 min and then thoroughly mixed with 80 μl of 0.5% (w/v) FeNH4(SO4)2)×12H2O, 0.5% (w/v) sulfamic acid and 0.25 M HCl. After cooling down to room temperature, 100 μl of the samples were measured at 620 nm. A calibration curve of N-acetyl-glucosamine was constructed freshly for each measuring cycle. One unit [U] was defined as the amount of enzyme required to release 1 μmol of reducing sugars per hour.

[2] = Substrate specificity, reducing end assay; type: biochemical; conditions: in % activity of chitin powder; 16 h at optimum conditions, 50 mg/ml substrate
Experimental: (§1) Different chitinous substrates were tested to assess the substrate affinity of the novel chitinases relative to untreated chitin powder. […] As expected, the conversion of colloidal chitin is more efficient compared to chitin powder as it provides an overall smaller particle size and thereby larger surface area. Chitosan powder (degree of acetylation: 15%) was also degraded efficiently and high chitosanase activity was observed especially for C1, C3, C4 and C5. Merely basal activity was detected when cellulose was utilized as a substrate for all enzymes.
(§2) Enzyme samples were incubated at different temperature (10-60° C., 10° C. increment) and pH (4-11, increment 1) using different buffer systems (Acetate, Tris-HCl, MES, total molar concentration 100 mM), as well as NaCl content (0, 1. 2.5, 5, 10 and 20% w/v) to determine optimum reaction conditions. All experiments were carried out at 1.0 ml scale using 2 μM of the respective enzymes and a 5% (wv) suspension of chitin powder extracted from shrimp shells (˜400.000 g/mol; Carl, Roth) in 100 mM MAT buffer. For the determination of the substrate specificity, chitin powder (5% w/v), glycol chitin (10% v/v), colloidal chitin (5% w/v), chitosan [DA 15-25%, medium molecular weight, Sigma-Aldrich] (5% w/v) and microcrystalline cellulose powder (Sigma Aldrich) (5% w/v) were investigated, respectively. The effect of several potential co-factors on activity was elucidated at a concentration of 1 mM. Additionally, the effect of detergents [SDS 0.5% (w/v), Tween-20 and Triton X-100 both at 0.5% (v/v)] and chemicals (Imidazole 100 mM, EDTA 1 mM) on enzymatic activity was assessed. Samples were incubated in a thermomixer for 16 h at 900 rpm. After incubation, samples were analyzed using the enzyme assay. Thermostability was assessed after incubation of recombinant chitinases at 60° C. for different durations followed by the quantification of residual enzyme activity under standard assay conditions.

Gibberella zeae = type: cell-based; set-up: key: xx = no growth/strong inhibition; x = small inhibition; conditions: start concentration 100 μg/ml
[3] = Substrate specificity, reducing end assay; type: biochemical; conditions: in % activity of chitin powder; 16 h at optimum conditions, 50 mg/ml substrate; remark: listed apart in the source
Experimental: as §1
The preparation of colloidal chitin was similar to the method described by Murthy and Bleakley with some minor differences [Murthy et al., Microbiol., 2012. 10(2): p. 1-5.]. Chitin powder (Carl Roth) was dissolved in concentrated hydrochloric acid (HCl) (5 g in 100 mL) and stirred at 4° C. for 24 h, after which the mixture was centrifuged at 4000×g for 15 min at 4° C. The precipitate was washed to neutral pH with distilled water and stored at 4° C.
as §2

[4] = Dialysed elution fraction after IMAC

B1: Chitinase 4: chitinolytic enzyme from P. orarium, SEQ ID NO: 4, recombinant with PelB signal peptide and 6×His tag (protein, listed as Photobacterium orarium)
chain: MAQAAANCRPDGLYQTPGVTVPYCTVYDQDGREKMGVDHPRRVIGYFTSWRSGNDPQSSYLVNDIPWDSLTHINYAFVSIGSDGKVNIGNVNNPDNPAVGKEWPGVEIDPALGFKGHFGALATAKAQHGVKTLISIGGWAETGGHFDDNGNRVADGGFYTMTTNADGSINHQGIQTFADSAVAMMRQYKFDGLDIDYEYPTSMQGAGNPDDFAYSDAMRPHLMKSYHELMKVLREKLDQASAQDGHHYMLTIAAPSSGYLLRGMETMSVTKYLDYVNIMSYDLHGAWNDYVGHNASLFDSGLDAELEAGNVYGTAQYKKTGYLNTDWAYHYFRGSMPAGRINIGVPYYTRGWQGVTGGTNGLWGKAALPNQSDCPTGTGAGTSNCGYGAIGIDNMWHDKDANGNEMGAGSNPMWHAMNLANGVYGSYTAAYGLDPVNDPQDALTGTYTRHYDSVSVAPWLWNADKKVFLSTEDKESINTKADYVIEQGIGGIMFWELAGDYSCYNLDANGNRTTVDPTENACKTGNGEYHMGDTMTKAIHNKFATATPYGNTLAEGAIPTEAVNIDVSVTGFKVGDQNYPLNPTMTLTNKTGQTLPGGTEFQFDIPTSTPDNMSDQSGANLQVISSGHTRGDNIGGLDGNFHRVAFTLPSWKQLGNNESFELTLNYFLPISGPANYSVRVNNADYALAFEQPDLPIADLSNGGGDNGGGDGNNGDCVTTGVNTYPNWPQTDWAGNPSHAGTGDKIIYNGAVYQAKWWTNSVPGSDGSWDTVCTVQIE
modifications: PelB signal peptide; 6xHis tag; Chitinase 4
Specific activity ([1]; Culture supernatant fraction): 0.07 U/mg
Specific activity [1, 4]: 6.07 U/mg
Relative activity, Cellulose [2]: 10.4 ± 0.9%
Relative activity, Chitin [2]: 100%
Relative activity, Chitosan [2]: 141.3 ± 5.5%
growth inhibition of Gibberella zeae in the MIC test (Gibberella zeae): x
Relative activity, Colloidal chitin [3]: 117.7 ± 6.3%

B2: Chitinase 3: chitinolytic enzyme from P. orarium, SEQ ID NO: 3, recombinant with PelB signal peptide and 6×His tag (protein, listed as Photobacterium orarium)
chain: MALAAPGTPQLAWMETDYAIVEVDQAATAYKDLVTVKNAADVPVAWQRYSGETADHWKVKLNGNVAFEESINPASSGAGSTTLSITQGGQYALTVELCSGSGAEEACSSSPATNIVVADTDGSHLDPLPMNVDPNNGTYSTPADTVVGAYFVEWGVFGRKFTVDKIPAQNLTHILYGFIPVCGPNESLGEIESGNSLAALNRACAGTPDFEVAIHDPWAAVQMPQPQSGHTYSTPYKGNYGQLMALKQRYPDLKVIPSIGGWTLSDPFFSFTDKSKRDVFVASVKKFLQTWKFFDGVDIDWEFPGGKGANTTLGDPVNDGPAYVALMRELRTMLDGLEAETGRQFELTSAIGVGYDKIDVVNYAEASQYMDYIFNMSYDFYGGWSNVTGHQTALNCGSHLTADQCNGTGVDENGEPRQGPAYTTAHGVERLLAQGVPANKLVVGAAMYGRGWTGVTQASMTDPSNPMTGVGNGAVAGSWEAGVIDYKDVVTRYENKAGVVLGYDEQAEAPWAYDPSNGDLVTYDSPRSIMAKGQYVRDLGLAGLFAWEIDADNGDILNAMQESLAGAPAGNRAPVARAGSDQQVNTAATVTLNGSSSTDSDGQIAGYQWVQTSGPALTLNGANTASATISVPDVTVDTQYVFTLTVTDNEGATATDSITVTAKAPGAQNTAPVASLTGPGTANADDVITLDASQSTDADGDTLTYDWTVPAGVNAVINGSSLSFTADSYTTDTALSFSVSVSDGTASDAASLTVTIAKDESGTGGEGDFPAYVEGTAYQAGDQVSNGGVNFECKPYPYSGWCSGAAWAYEPGVGVYWQDAWTQLIE
modifications: PelB signal peptide; 6xHis tag; Chitinase 3
Specific activity ([1]; Culture supernatant fraction): 0.13 U/mg
Specific activity [1, 4]: 8.13 U/mg
Relative activity, Cellulose [2]: 9.4 ± 0.9%
Relative activity, Chitin [2]: 100%
Relative activity, Chitosan [2]: 113.4 ± 9.0%
growth inhibition of Gibberella zeae in the MIC test (Gibberella zeae): x
Relative activity, Colloidal chitin [3]: 133.4 ± 6.5%
